Reference: the supplement of paper PMC9170038

Tested on: MS2 coat protein
Assay: apparent KD of MS2 coat protein; higher = weaker reporter binding
Details: Eterna round: R107
Procedure: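 RNA-MaP round R107: designed RNA switches with theophylline, tryptophan, arginine or FMN aptamers are transcribed on-chip within common flanks. They are titrated with SNAP-549-labelled MS2 coat protein in RNA-MaP buffer (100 mM Tris pH 7.5, 80 mM KCl, 4 mM MgCl2), without ligand or with the indicated ligand. Median apparent KD per design.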

[1] = input ligand: theophylline 20 uM
[2] = input ligand: tryptophan 2.4 mM
[3] = input ligand: theophylline 2 mM

Row | Sequence | apparent KD of MS2 coat protein (input ligand: arginine 13.2 mM) [nM] | apparent KD of MS2 coat protein [1] [nM] | apparent KD of MS2 coat protein [2] [nM] | apparent KD of MS2 coat protein (input ligand: none) [nM] | apparent KD of MS2 coat protein [3] [nM]
1 | ACAUGAGGAUCACCCAUGUGCAGCACGGAUACCAGCGUCCUAGUGCGCCCUUGGCAGCCGGACAUGAGGAUCACCCAUGUGUGGG [Exclusion Theophylline A GF30] | 50.2 | 135 | 95.7 |  | 
2 | GGCGCUGCGUCGGCCGCCACUAGCGGGUAAUGGGUGUACAUGAGGAUCACCCAUGUAAUAUGGCCUAGGACCGGGACGUGGCGCC [Moose] | 259 | 415 | 620 | 427 | 465
3 | ACAUGAGGAUCACCCAUGUAGCGUAGGGAAGGAGCGGAAUAAAGUCCAGGUAGGUCGCCCAUAUGAUGAUCUCACUUAUUAUCGA [#12 Same State - Arginine A] | 27.7 | 42.5 | 30.5 | 31 | 42.2
4 | UUAUAUACUACGGCCGCCACUGAACAUGAGGAUCACCCAUGUAAUGUUCAGACGUCUUUAGACGACAGGACCGGGUAGAAUUAAA [Tryptophan B 1] | 79.5 | 114 |  |  | 122
5 | UGUAUGGACUGAAGGAGCGCCUCAAAAUAACUUGAGGAACACCCAAGUAAGGCGAAAGCCGGGCAGGUAGGUCGCAGUCCAUACU [ArgBX 3] | 31 | 23 | 34.6 | 24.6 | 46.1
6 | ACGUAAUGCGGAAGGAGCGUCAUUUUAAAACAUGAGGAUCACCCAUGUAAUAUUUUUGUGUGACAGGUAGGUCGCCGAAGUACGA [#07 Same State - Arginine B] | 14.4 | 19.3 | 13.6 | 12.9 | 14.4
7 | GUAGGUCACCUCAUGAGACCUACCCUGGAAGGAGCGAGCGAAAGCUCAGGUAGGUCGCCAGAAACAUGAGGAUCACCCAUGUAAU [(A)''-(M)'-(A)'-(Arg1)-(Arg2)-(M1)-(M2)_Design3] | 29.4 | 150 | 44.6 | 51.1 | 190
8 | UUCACAUGAUCUGAAUAUACAGAAAAGAAACGAGGACCGGUACGGCCGCCACUCGUGCCGGAAACAUGAGGAUCACCCAUGUGUU [AK1.3 Exclusion TrypA mod IceBolt] | 19.7 | 28.5 |  |  | 26.2
9 | GCAUCCUAGUCGGCCGCCACUGCAGGAUCGGCGGCAGAUCCUCAACAUGAGGAUCACCCAUGUAGCAGGACCGGGACUAGGAUGC [(Trp1)-(TM)''-(TM)'-(Ms2)-(Trp2)_Design2] | 36.3 | 80.3 | 99.8 | 91.6 | 48.1
10 | UGUCGGCGAAAGUUGGCGUGUCUUGCUGGUCGAGGACCGGUACGGCCGCCACUCGAUCCUUCGCACAUGAGGAUCACCCAUGUUG [SS Tryp A #24] | 25.8 | 49.1 |  |  | 34.8
11 | UGAGAUCCUCAUGAUACCAGUGUACUACAUGAGGAUCACCCAUGUAGCAACAUCUGUAGACACCCUUGGCAGCAUGAGACCACGU [Theo B SS t5] | 17.5 | 35.2 | 15.6 |  | 
12 | AUAACAUGAGGAUCACCCAUGUAAGCAGAUACCAGCUAGGAAACUAGCCCUUGGCAGCUGCAAUCAUGGGUGUUUGCAGCUGCAA [(M1)-(M2)-(T1)-(T2)-(M)'-(T)'_Design2] | 21.2 | 36.9 | 13 | 18.1 | 19.9
13 | CGUAUUGUAACUGAUACCAGUGUACUGACAUGAGGAUCACCCAUGUUGGGUUUUGUUGUACACCCUUGGCAGCAGAAUCAAUACG [AstrosExyTheB#5] | 59.4 | 74.2 | 65.8 |  | 
14 | AACAUGAGGAUCACCCAUGUGUCCUCGAAACGAGGACCGGUACGGCCGCCACUCGAGCUAUGUUGACGAAAAGUCAGCAUAGCAA [Mat - Exclusion - Trytophan A - D13] | 123 | 316 | 1080 | 276 | 374
15 | UCUUGGUCCGCAAGGACCUUGAGUUGCGAUACCAGCACGGUAACGUGCCCUUGGCAGCGCACAUGAGGAUCACCCAUGUGGUGUU [#1 Exclusion - Theophylline A Attempt #16 (HarryS)] | 82.3 | 348 | 170 |  | 
16 | AGUCACUCGAGGUGAUCUGACGAGUGGCAACGAGGACCGGUACGGCCGCCACUCGAAUAAACAUGAGGAUCACCCAUGUACAAAU [T''-M'-T'-T-MS2 - Design 11] | 54 | 216 |  |  | 626
17 | UAACAUGAGGAUCACCCAUGUAAACUAAGUCGAGGACCGGUACGGCCGCCACUCGAAAUUGAAGAAUUGGCGGAAAAUGUAUGUU [JR_ExcTryptoA_Sub018] | 12 | 17.7 |  |  | 13.3
18 | UCACAUGAGGAUCACCCAUGUACAGGCGAUACCAGCCGUACAUUGGGCCCUUGGCAGCGCACCGAGGACUUUUUAAGCAUCUCGG [Diatbeen] | 26.2 | 401 | 23.8 | 19.8 | 282
19 | CCUCAAUAGACGGCCGCCACUGAAACAUGCGGAUACAUGAGGAUCACCCAUGUGGGUGUGUUACGCAGGACCGGGUCAAGACCCG [#12 Same State - Tryptophan B] | 115 | 316 |  |  | 583
